The data set can be described thus: protein stability index of a GFP-peptide fusion (GPS, HEK-293T) (PSI 1-6); higher = more stable. The note with it: c terminus: a fixed tail appended.

± gives the standard deviation.
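Also: 24-mer peptide tiles fused after GFP, lentivirally expressed, FACS-sorted into six equal bins by GFP/DsRed ratio, decoded by Illumina sequencing, PSI is the read-weighted mean bin number.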

As to YFTNRKVNSVCWASLNHLDSHILL [DCAF4], the protein stability index (treatment: DMSO) was 2.82 ± 0.56 and the protein stability index (treatment: MLN4924 1 uM, 8 h) turned out to be 2.42 ± 0.21.
The matching figures for VQLSDEMFVFQDGRWVNENCRLQS [CBY2]: 3.06 ± 0.26 and 3.03 ± 0.34.
The matching figures for EKEELLQLSIERGKVLQNKQAEIC [CCDC89]: 4.44 ± 0.27 and 4.68 ± 0.17.
Turning to SKLAQLTLEQILEHLDNLRLNLTN [INTS3], the protein stability index turned out to be 2.3 ± 0.39 (treatment: DMSO) and 2.2 ± 0.21 (treatment: MLN4924 1 uM, 8 h).
The matching figures for AVGGRNAAGELPTVECYNPRTNEW [KLHL13]: 4.2 ± 0.13 and 4.33 ± 0.13.
The matching figures for EAEADEEADPPASDLPTPQAIEPQ [SNX8]: 5.62 ± 0.17 and 5.63 ± 0.26.
Regarding RVGQWVRMENVTVLGEDVIVNDEL [GMPPB], the protein stability index is 4.01 ± 0.066 (treatment: DMSO) and 4.07 ± 0.24 (treatment: MLN4924 1 uM, 8 h).
The corresponding values for TDDQLLALLPSLSHCSQLTTLSFY [PRAME] are 2.26 ± 0.37 and 2.05 ± 0.3.
The matching figures for EILNFNQYYEACRKAAKSLIKLGL [ACSBG2]: 1.91 ± 0.39 and 2.92 ± 1.3.
The matching figures for LDADAAQRVVYLEGCGPPLRRWLR [TSPAN10]: 2.69 ± 0.2 and 2.99 ± 0.14.
PELLSTHPFFDTAEPDMDDPAYIA [INTS4]: the protein stability index runs as follows: (treatment: DMSO) 5.12 ± 0.22; (treatment: MLN4924 1 uM, 8 h) 5.16 ± 0.12.
Take GKEDSTLQLLREENRALQQLLEQK [CBY2]: the protein stability index is, setting by setting: (treatment: DMSO) 4.81 ± 0.23; (treatment: MLN4924 1 uM, 8 h) 4.84 ± 0.38.
The corresponding values for VPERLLVVLDMEEGTLGYAIGGTY [SPSB2] are 2.69 ± 0.74 and 2.35 ± 0.56.
The matching figures for ERFSSAPCLLGSRVFSQGSHAWEV [TRIM35]: 2.51 ± 0.36 and 2.46 ± 0.2.
The corresponding values for TSFFDSDEDDSTSRFSSSTEQSSA [DVL3] are 5.34 ± 0.085 and 5.25 ± 0.22.
For QNQPIDKARKTYERLVAQFPSSGR [CSTF3], the protein stability index came to 3.75 ± 0.26 (treatment: DMSO) and 3.9 ± 0.24 (treatment: MLN4924 1 uM, 8 h).
The corresponding values for LSSVECLDYTADEDGVWYSVAPMN [KLHL12] are 3.59 ± 0.19 and 3.74 ± 0.48.
The matching figures for HHAALNGHVEMVNLLLAKGANINA [ANKRD44]: 2.51 ± 0.4 and 2.89 ± 0.2.
The matching figures for PAQSGILSDREVVNLFLHFTVNPK [BTBD1]: 1.84 ± 0.24 and 2.53 ± 0.23.
Turning to NVSGLRFETQMKTLAQFPETLLGD [KCNA4], the protein stability index by setting is: (treatment: DMSO) 3.53 ± 0.48; (treatment: MLN4924 1 uM, 8 h) 3.86 ± 0.1.
The matching figures for DEEVVATAGDRLTEFRKGAQSLPG [IRX6]: 5.12 ± 0.2 and 5.19 ± 0.22.
The corresponding values for EQIKTRTEELIVQTKQVYDAVGML [NLN] are 3.68 ± 0.25 and 3.88 ± 0.41.
The matching figures for KYDVKKVEEVVYDLSIRGFNKETA [TSN]: 3.57 ± 0.31 and 3.64 ± 0.23.
For the sequence KSWLNGFRPKDQTSVGMSFVAGGI [SLC25A39], the protein stability index is, setting by setting: (treatment: DMSO) 2.2 ± 0.18; (treatment: MLN4924 1 uM, 8 h) 2.43 ± 0.24.
The matching figures for SPEARDARSPSGPSGSLENGTKAD [TRIM29]: 5.36 ± 0.44 and 5.61 ± 0.18.
As for LQSSKNSYSFQNPSSFDPSMLLQR [RNF180], the protein stability index runs as follows: (treatment: DMSO) 2.9 ± 0.27; (treatment: MLN4924 1 uM, 8 h) 3.3 ± 0.17.
The matching figures for RECGLAAPRFSFNDPSGSEEADFL [IRX6]: 4.53 ± 0.21 and 4.34 ± 0.33.
The matching figures for PMENLEKQLICPICLEMFTKPVVI [TRIM63]: 2.43 ± 0.089 and 2.38 ± 0.36.
Take EDPDYYGQEIWSREPYYARPEPEL [CPXM2]: where the note is “treatment: DMSO”, the protein stability index is 4.38 ± 0.11.
As to LEQMGALAVRGSRRERELERRELA [ZBED3], the protein stability index reads like this: (treatment: DMSO) 5 ± 0.37; (treatment: MLN4924 1 uM, 8 h) 4.76 ± 0.34.
The matching figures for RIKIRQCIGLQNLKLLDELPIAKV [ASB7]: 2.12 ± 0.31 and 2.19 ± 0.49.
The corresponding values for WIGNEWLPSLGLPQYRSYFMECLV [PPFIA4] are 3.67 ± 0.24 and 2.15 ± 0.088.
For LKCEMNQMSGEPLDKLNFEAINFC [ACSBG2], the protein stability index runs as follows: (treatment: DMSO) 2.92 ± 0.41; (treatment: MLN4924 1 uM, 8 h) 3.16 ± 0.31.
The corresponding values for EEANADLEVKIHDWYQKQTPTSPE [KRT15] are 5.33 ± 0.23 and 5.29 ± 0.16.
The matching figures for ETPMAPVPLGPLGETYCEEHGEKI [TRIM15]: 5.39 ± 0.2 and 5.38 ± 0.12.
The corresponding values for HAGKKGKLSEHLRYCDSILREMLS [BRD3] are 2.16 ± 0.41 and 2.21 ± 0.3.
SVNDQCGFGVLRLDADAAQRVVYL [TSPAN10] came in with a protein stability index (treatment: DMSO) of 2.32 ± 0.27 and a protein stability index (treatment: MLN4924 1 uM, 8 h) of 2.28 ± 0.23.
On to LQCAMEENCLSASAAQTDPTTGYR [LOXL2], for which the protein stability index amounted to 3.59 ± 0.23 (treatment: DMSO) and 3.45 ± 0.29 (treatment: MLN4924 1 uM, 8 h).
Consider EEPTERGNLEVGEPQSEPVRVLDM [FBXO34], for which the protein stability index reads like this: (treatment: DMSO) 5.34 ± 0.17; (treatment: MLN4924 1 uM, 8 h) 5.5 ± 0.16.
The matching figures for LELAQFHNAHQLAAWCLHHICTNY [RHOBTB1]: 2.7 ± 0.48 and 2.59 ± 0.43.
As to VKEGGSYGFSLKTVQGKKGVYMTD [PDZK1], the protein stability index is, setting by setting: (treatment: DMSO) 3.39 ± 0.41; (treatment: MLN4924 1 uM, 8 h) 3.08 ± 0.53.
The corresponding values for FDIQKIMQEKNPVHVIGVEEPSVG [ZNF8] are 4.07 ± 0.39 and 4 ± 0.4.
The corresponding values for MASFPPRVNEKEIVRLRTIGELLA [WSB1] are 2.18 ± 0.3 and 2.14 ± 0.13.
The corresponding values for DFKNPIIEKYLRRQLTKPRPVILD [OAS1] are 2.46 ± 0.11 and 2.36 ± 0.2.
As for RRSRDPGYDHLWDETLSSSHQKCP [PLEKHN1], the protein stability index runs as follows: (treatment: DMSO) 3.81 ± 0.32; (treatment: MLN4924 1 uM, 8 h) 4.04 ± 0.13.
In the case of YLRYVRRLDFFEKPDYEYLRTLFT [CSNK1G1], the protein stability index (treatment: DMSO) was determined as 2.34 ± 0.48 and the protein stability index (treatment: MLN4924 1 uM, 8 h) came to 2.24 ± 0.38.
In the case of AAGYIQCMHEVHTFVSTCQAIDAT [HES6], the protein stability index is 1.93 ± 0.6 (treatment: DMSO) and 2.12 ± 0.37 (treatment: MLN4924 1 uM, 8 h).
With ANRPDPNTPMEETVRAMTHVINQG [KCNAB2], the protein stability index is, setting by setting: (treatment: DMSO) 4.75 ± 0.13; (treatment: MLN4924 1 uM, 8 h) 4.78 ± 0.12.
The corresponding values for DAPPVELQLLHECSPSQMDLLCAQ [FANCE] are 4.31 ± 0.054 and 4.63 ± 0.25.
The corresponding values for LYIFATCLGLSYDGLLGDNQIMPK [MAGEA3] are 2.92 ± 0.34 and 2.78 ± 0.52.
The corresponding values for QRRSRQNPQSPPQDSSVTSKRNIK [HDAC6] are 5.26 ± 0.51 and 5.27 ± 0.31.
On to NDLQDLREQILRVKDTDDVPMILV [RAP1B], for which the protein stability index is, setting by setting: (treatment: DMSO) 2.82 ± 0.3; (treatment: MLN4924 1 uM, 8 h) 3.06 ± 0.21.
The corresponding values for VRWLRPVHRQLGEANEEFALRVQQ [AUP1] are 3.1 ± 0.25 and 3.02 ± 0.19.
The matching figures for PHCSDLMPSGSEEKILRELSEEEE [KCNA4]: 5.64 ± 0.23 and 5.56 ± 0.24.
The matching figures for LLAAGANVHATTATGDTALTYACE [ANKRD17]: 4.13 ± 0.2 and 3.9 ± 0.23.
EMKEFSSQLAGQVNVEMDAAPGVD [KRT15]: the protein stability index amounted to 5.29 ± 0.24 (treatment: DMSO) and 5.07 ± 0.11 (treatment: MLN4924 1 uM, 8 h).
The corresponding values for KNLKIWNVHTGEFRNCGACVTLMQ [WDR88] are 2.42 ± 0.86 and 2.35 ± 0.54.
On to SLQSTGKCLLYCNGVLEPLYLCPN [SLC25A39], for which the protein stability index (treatment: DMSO) was 2.03 ± 0.34 and the protein stability index (treatment: MLN4924 1 uM, 8 h) worked out at 2.21 ± 0.5.
The corresponding values for IALYFVSKKFKNCFQSCLCCCCYQ [EDNRA] are 3.19 ± 1.1 and 2.13 ± 1.4.
The corresponding values for AAAHYTGDKASPDQNASTHTPQSS [CLINT1] are 5.52 ± 0.25 and 5.524 ± 0.042.
The corresponding values for CDEARNHYGGVVSLIPLILDLMKE [SPACA9] are 2.3 ± 0.29 and 2.36 ± 0.23.
Consider ARVLDRRGCSRVEGGGTSLHVACE [ANKRD9], for which the protein stability index reads like this: (treatment: DMSO) 3.57 ± 0.27; (treatment: MLN4924 1 uM, 8 h) 3.47 ± 0.46.
The corresponding values for LAVAGGPRKTAAPVNALVSHLLVV [ESRRA] are 2.92 ± 0.61 and 2.85 ± 0.55.
The corresponding values for KILLDAQHESGQSSSRGSSHCDSP [BNIP3L] are 4.91 ± 0.18 and 4.83 ± 0.1.
The matching figures for VVGTPCYISPELCEGKPYNQKSDI [NEK8]: 3.29 ± 0.38 and 3.49 ± 0.56.
LETLPEFRDEKDYPASTSQDSFEA [KCNA3]: the protein stability index is, setting by setting: (treatment: DMSO) 5.38 ± 0.37; (treatment: MLN4924 1 uM, 8 h) 5.41 ± 0.2.
The corresponding values for LEEDLKEVLRSEAGIELIIEDDIR [MYBL2] are 4.66 ± 0.35 and 4.68 ± 0.39.
The matching figures for GIRQITSDDFCTFQMVLEGGVCCT [GFOD1]: 2.18 ± 0.21 and 2.22 ± 0.4.
The corresponding values for RGADDAMESSKPGPVQVVLVQKDQ [ATL3] are 5.09 ± 0.3 and 4.95 ± 0.62.
NLTSNEGHSLKNLEHRLNEMERTQ [RASAL3]: the protein stability index came to 4.28 ± 0.32 (treatment: DMSO) and 4.26 ± 0.25 (treatment: MLN4924 1 uM, 8 h).
The matching figures for YIPRRLEEAAMQKCLVTEAQTLLR [RSAD1]: 2.34 ± 0.23 and 2.63 ± 0.17.
The matching figures for GSLGFEPVYVSCIAQDTCTTTDHS [SPAG8]: 3.37 ± 0.35 and 3.64 ± 0.17.
Turning to AVLGRYVPGLLLSYLMLVTVMMWP [RETREG3], the protein stability index runs as follows: (treatment: DMSO) 3.41 ± 0.13; (treatment: MLN4924 1 uM, 8 h) 3.1 ± 0.47.

These data come from the supplement of paper PMC10567573.
